Sequences and labels used below:
B1: CPEB3 Ribozyme (parent)
chain: GGGGGCCACAGCAGAAGCGUUCACGUCGCGGCCCCUGUCAGAUUCUGGUGAAUCUGCGAAUUCUGCUGU

The variants in this series derive from B1. Put plainly: self-cleavage, relative activity (ratio to wild type); higher = more cleavage; co-transcriptional.
In the case of GGGGGCCACAGCAGAAGUGUUCACGUCGCGGCCCCUGUCAGAUUCUGGUGAAUCCGCGAAUUCUGCUGU, the self-cleavage worked out at 0.446.

For the variant GGGGGCCACAGCAGAAGUGUUCACGUCGCGGCCCCUGUCAGAUUCUGGUGAAUCAGCGAAUUCUGCUGU, the self-cleavage came out at 0.447.

Consider GGGGGCCACAGCAGAAGCAUUUACGUCGCGGCCCCUGUCAGAUUCUGGUGAAUCUGCGAAUUCUGCUGU, for which the self-cleavage was 0.196.

For the variant GGGGGCCACAGCAGAAGCAUUGACGUCGCGGCCCCUGUCAGAUUCUGGUGAAUCUGCGAAUUCUGCUGU, the self-cleavage was found to be 0.148.

On to GGGGGCCACAGCAGAAGCAUUCUCGUCGCGGCCCCUGUCAGAUUCUGGUGAAUCUGCGAAUUCUGCUGU, for which the self-cleavage came out at 0.154.

With GGGGGCCACAGCAGAAGCAUUCCCGUCGCGGCCCCUGUCAGAUUCUGGUGAAUCUGCGAAUUCUGCUGU, the self-cleavage stood at 0.25.

Turning to GGGGGCCACAGCAGAAGCAUUCGCGUCGCGGCCCCUGUCAGAUUCUGGUGAAUCUGCGAAUUCUGCUGU, the self-cleavage worked out at 0.131.

GGGGGCCACAGCAGAAGUGUUCACGUCGCGGCCCCUGUCAGAUUCUGGGGAAUCUGCGAAUUCUGCUGU: the self-cleavage is 0.894.

As for GGGGGCCACAGCAGAAGCAUUCACGUCGCGGCCCCUGUCAGAUUCUGGUGAAUCUGCGAAUUCUGCUGU, the self-cleavage was 0.167.

GGGGGCCACAGCAGAAGUGUUCACGUCGCGGCCCCUGUCAGAUUCUGGUGAAUCUGCGAAUUCUGCAGU: the self-cleavage worked out at 0.862.

In the case of GGGGGCCACAGCAGAAGUGUUCACGUCGCGGCCCCUGUCAGAUUCUGGUGAAUCUGCGAAUUCUGCCGU, the self-cleavage is 0.802.

As for GGGGGCCACAGCAGAAGCAUUCACGUCGCGGCCCCUGUCAGAUUCUGGUGACUCUGCGAAUUCUGCUGU, the self-cleavage was 0.183.

As for GGGGGCCACAGCAGAAGCAUUCACGUCGCGGCCCCUGUCAGAUUCUGGUGAGUCUGCGAAUUCUGCUGU, the self-cleavage is 0.204.

For the variant GGGGGCCACAGCAGAAGCAUUCACGUCGCGGCCCCUGUCAGAUUCUGGUGAUUCUGCGAAUUCUGCUGU, the self-cleavage is 0.156.

As for GGGGGCCACAGCAGAAGUGUUCACGUCGCGGCCCCUGUCAGAUUCUGGUGAAUCUGCGAAUUCUGCUGG, the self-cleavage is 1.

As to GGGGGCCACAGCAGAAGUGUUCACGUCGCGGCCCCUGUCAGAUUCUGGUGAAUCUGCGAAUUCUGCUGC, the self-cleavage stood at 1.04.

For the variant GGGGGCCACAGCAGAAGUGUUCACGUCGCGGCCCCUGUCAGAUUCUGGUGAACCUGCGAAUUCUGCUGU, the self-cleavage worked out at 0.47.

GGGGGCCACAGCAGAAGUGUUCACGUCGCGGCCCCUGUCAGAUUCUGGUGAAUCUGCGAAAUCUGCUGU: the self-cleavage came to 0.467.

On to GGGGGCCACAGCAGAAGUGUUCACGUCGCGGCCCCUGUCAGAUUCUGGUGAAUCUGCGAACUCUGCUGU, for which the self-cleavage was 0.267.

Consider GGGGGCCACAGCAGAAGUGUUCACGUCGCGGCCCCUGUCAGAUUCUGGUGAAUCUGCGAAGUCUGCUGU, for which the self-cleavage came to 0.312.

Turning to GGGGGCCACAGCAGAAGCAUUCACGUCGCGGCCCCUGUCAGAUUCUGGUGUAUCUGCGAAUUCUGCUGU, the self-cleavage was 0.245.

In the case of GGGGGCCACAGCAGAAGUGUUCACGUCGCGGCCCCUGUCAGAUUCUGGUGAAUCUGCGAAUUCGGCUGU, the self-cleavage was determined as 0.43.

Take GGGGGCCACAGCAGAAGUGUUCACGUCGCGGCCCCUGUCAGAUUCUGGUGAAUCUGCGAAUACUGCUGU: the self-cleavage was determined as 0.402.

Turning to GGGGGCCACAGCAGAAGUGUUCACGUCGCGGCCCCUGUCAGAUUCUGGUGAAUCUGCGAAUCCUGCUGU, the self-cleavage worked out at 0.572.

As for GGGGGCCACAGCAGAAGCAUUCACGUCGCGGCCCCUGUCCGAUUCUGGUGAAUCUGCGAAUUCUGCUGU, the self-cleavage came to 0.123.

For the variant GGGGGCCACAGCAGAAGCAUUCACGUCGCGGCCCCUGUCUGAUUCUGGUGAAUCUGCGAAUUCUGCUGU, the self-cleavage was 0.147.

GGGGGCCACAGCAGAAGCAUUCACGUCGCGGCCCCUGUCAGAUUCUGGUGAAUCUGCGCAUUCUGCUGU: the self-cleavage stood at 0.194.

GGGGGCCACAGCAGAAGCAUUCACGUCGCGGCCCCUGUCAGAUUCUGGUGAAUCUGCGGAUUCUGCUGU: the self-cleavage was found to be 0.188.

Consider GGGGGCCACAGCAGAAGCAUUCACGUCGCGGCCCCUGUCAGAUUCUGGUGAAUCUGCGACUUCUGCUGU, for which the self-cleavage was found to be 0.0899.

For GGGGGCCACAGCAGAAGCAUUCACGUCGCGGCCCCUGUCAGAUUCUGGUGAAUCUGCGAUUUCUGCUGU, the self-cleavage came to 0.0747.

With GGGGGCCACAGCAGAAGCAUUCACGUCGCGGCCCCUGUCAGUUUCUGGUGAAUCUGCGAAUUCUGCUGU, the self-cleavage is 0.191.

Take GGGGGCCACAGCAGAAGCAUUCACGUCGGGGCCCCUGUCAGAUUCUGGUGAAUCUGCGAAUUCUGCUGU: the self-cleavage was determined as 0.153.

For GGGGGCCACAGCAGAAGCAUUCACGUCGUGGCCCCUGUCAGAUUCUGGUGAAUCUGCGAAUUCUGCUGU, the self-cleavage came to 0.0995.

With GGGGGCCACAGCAGAAGCAUUCACGUAGCGGCCCCUGUCAGAUUCUGGUGAAUCUGCGAAUUCUGCUGU, the self-cleavage is 0.143.

Turning to GGGGGCCACAGCAGAAGCAUUCACGUUGCGGCCCCUGUCAGAUUCUGGUGAAUCUGCGAAUUCUGCUGU, the self-cleavage worked out at 0.768.

GGGGGCCACAGCAGAAGCAUUCACGUGGCGGCCCCUGUCAGAUUCUGGUGAAUCUGCGAAUUCUGCUGU: the self-cleavage came to 0.656.

For GGGGGCCACAGCAGAAGCAUUCAUGUCGCGGCCCCUGUCAGAUUCUGGUGAAUCUGCGAAUUCUGCUGU, the self-cleavage worked out at 0.16.

In the case of GGGGGCCACAGCAGAAGCAUUCAAGUCGCGGCCCCUGUCAGAUUCUGGUGAAUCUGCGAAUUCUGCUGU, the self-cleavage turned out to be 0.124.

As to GGGGGCCACAGCAGAAGCAUUCAGGUCGCGGCCCCUGUCAGAUUCUGGUGAAUCUGCGAAUUCUGCUGU, the self-cleavage is 0.159.
